T1: his-tagged human BCMA protein (ACROBiosystems, catalog # BCA-H522y-100 ug) (human, UniProt Q02223 1-54)
T1 construct: limits of the bought construct are not otherwise stated; also called recombinant his-tagged human BCMA; not shown: his tag of the bought protein
T1 sequence: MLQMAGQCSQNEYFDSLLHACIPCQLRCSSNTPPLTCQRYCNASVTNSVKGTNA

T2: Wild type human BCMA protein-mouse Fc (human)
T2 construct: also called wild type human BCMA-mouse Fc; wild type BCMA protein
T2 chain: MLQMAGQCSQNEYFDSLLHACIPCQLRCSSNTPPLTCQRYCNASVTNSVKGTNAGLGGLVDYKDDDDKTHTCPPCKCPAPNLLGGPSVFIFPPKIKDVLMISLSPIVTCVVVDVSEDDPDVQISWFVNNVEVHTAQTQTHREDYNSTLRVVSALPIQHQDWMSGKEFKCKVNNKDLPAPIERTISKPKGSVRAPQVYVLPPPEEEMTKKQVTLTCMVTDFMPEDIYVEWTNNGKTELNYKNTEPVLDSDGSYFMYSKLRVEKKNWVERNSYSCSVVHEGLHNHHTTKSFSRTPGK

T3: Mutant-2 human BCMA protein-mouse Fc (human)
T3 construct: also called mutant-2 human BCMA-mouse Fc (del32-35G); mutant-2 BCMA protein
T3 chain: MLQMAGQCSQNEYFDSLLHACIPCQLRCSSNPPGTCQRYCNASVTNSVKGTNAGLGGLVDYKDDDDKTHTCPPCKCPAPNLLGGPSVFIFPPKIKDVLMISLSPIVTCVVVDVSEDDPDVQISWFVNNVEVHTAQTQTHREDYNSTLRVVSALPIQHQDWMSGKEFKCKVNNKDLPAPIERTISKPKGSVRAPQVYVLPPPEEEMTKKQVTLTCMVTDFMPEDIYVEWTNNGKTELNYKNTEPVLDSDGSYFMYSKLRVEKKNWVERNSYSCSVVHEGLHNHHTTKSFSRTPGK

T4: his-tagged mouse BCMA protein (ACROBiosystems, catalog # BCA-M52H3) (mouse, UniProt O88472 1-49)
T4 construct: Bought protein; not shown: his tag
T4 chain (looked up): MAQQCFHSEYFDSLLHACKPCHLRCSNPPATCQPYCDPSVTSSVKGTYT


Legend:
[1] = biological target: T1, his-tagged human BCMA protein …; assay: SPR (Biacore T200, 25 C), antibody captured on anti-human Fc, his-tagged human BCMA as analyte, 1:1 binding model
Description: (§1) Binding kinetics of anti-BCMA antibodies with his-tagged human BCMA protein (ACROBiosystems, catalog # BCA-H522y-100 ug, UniProt Q02223-1, SEQ ID NO:92) was measured using surface plasmon resonance (SPR). Kinetic interactions between the antibodies and his-tagged BCMA proteins were measured at 25° C. using Biacore T200 surface plasmon resonance (GE Healthcare). Anti-human fragment crystallizable region (Fc region) antibody was immobilized on a CM5 sensor chip to approximately 8000 resonance units (RU) using standard N-hydroxysuccinimide/N-Ethyl-N′-(3-dimethylaminopropyl) carbodiimide hydrochloride (NHS/EDC) coupling methodology. The anti-BCMA antibody (2 μg/mL) was captured for 60 seconds at a flow rate of 10 μL/minute. The his-tagged BCMA protein was run at six different dilutions of 3.12, 6.25, 12.5, 25, 50, 100 and 200 nM, in a running buffer of 0.01 M HEPES pH 7.4, 0.15 M NaCl, 3 mM EDTA, 0.05% v/v Surfactant P20 (HBS-EP+). The 25 nM BCMA protein run was measured two times. All measurements were conducted in HBS-EP+ buffer with a flow rate of 30 μL/minute. A 1:1 (Langmuir) binding model was used to fit the data. The SPR sensorgrams of anti-BCMA antibodies BCA7, GSK J6M0, BC4C9 and BC5C4 are shown in FIGS. 1, 2, 3 and 4, respectively, and their corresponding binding kinetics are listed in Table 3.

[2] = biological target: T2, Wild type human BCMA protein-mouse Fc; assay: bio-layer interferometry, antibody (100 nM) loaded on AR2G sensor, BCMA-mouse Fc in solution
Description: (§2) The results of the protein-protein binding assays described in Example 8 were used to design an epitope mapping assay using bio-layer interferometry. Various anti-BCMA antibodies (2C5, 2E1, 4C9, 6G8, Bluebird C11D5, GSK J6M0, or isotype control) (100 nM) were loaded onto AR2G sensors and reacted with buffer or one of three types of human BCMA proteins including: including: wild type human BCMA-mouse Fc (SEQ ID NO:5), mutant-1 human BCMA-mouse Fc (double mutation 17G-18G; SEQ ID NO:6), or mutant-2 human BCMA-mouse Fc (mutation del32-35G; SEQ ID NO:7).

[3] = biological target: T3, Mutant-2 human BCMA protein-mouse Fc; assay: as above
Description: as §2

[4] = biological target: T1, his-tagged human BCMA protein …; assay: SPR (Biacore T200), antibody captured on anti-human Fc chip, his-tagged human BCMA as analyte
Description: as §1, with “The SPR sensorgrams of anti-BCMA antibodies BCA7, GSK J6M0, BC4C9 and BC5C4 are shown in FIGS. 1, 2, 3 and 4, respectively, and their corresponding binding kinetics are listed in Table 3.” left out
(§3) Cross reactivity of two of the anti-BCMA antibodies, BCA7-2C5 and BCA7-2E1, with his-tagged human, cynomolgus or mouse BCMA protein were analyzed by SPR in the manner as described above. […]

[5] = biological target: T4, his-tagged mouse BCMA protein …; assay: SPR (Biacore T200), antibody captured on anti-human Fc chip, his-tagged mouse BCMA as analyte
Description: as §1, with “The SPR sensorgrams of anti-BCMA antibodies BCA7, GSK J6M0, BC4C9 and BC5C4 are shown in FIGS. 1, 2, 3 and 4, respectively, and their corresponding binding kinetics are listed in Table 3.” left out
as §3

[6] = biological target: T5, his-tagged cynomolgus BCMA protein (ACROBiosystems, catalog # BCA-052H7) (cynomolgus, UniProt A0A2K5UD97 1-53); assay: SPR (Biacore T200), antibody captured on anti-human Fc chip, his-tagged cynomolgus BCMA as analyte
T5 construct: Bought protein; also called cyno BCMA; not shown: his tag
T5 sequence (A0A2K5UD97 entry or part of it): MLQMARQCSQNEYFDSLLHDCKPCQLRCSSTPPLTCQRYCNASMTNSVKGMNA
Description: as §1, with “The SPR sensorgrams of anti-BCMA antibodies BCA7, GSK J6M0, BC4C9 and BC5C4 are shown in FIGS. 1, 2, 3 and 4, respectively, and their corresponding binding kinetics are listed in Table 3.” left out
as §3

[7] = biological target: T1, his-tagged human BCMA protein …; assay: SPR (Biacore T200), antibody captured on anti-human Fc, his-tagged human BCMA as analyte; fit with ka1/kd1/ka2/kd2 (model not named)
Description: as §1, with “A 1:1 (Langmuir) binding model was used to fit the data.” left out
Binding kinetics of optimized anti-BCMA antibodies BCA7-2C5, BCA7-2D11, BCA7-2G2, BCA7-2E1, BCA7-2D8 and BCA7-2E8, with his-tagged human BCMA protein (ACROBiosystems, catalog # BCA-H522y-100 ug), were analyzed in the manner as described above.

Row | Binder | Kd [1] [nM] | koff [1] [s⁻¹] | kon [1] [M⁻¹ s⁻¹] | binding result [2] | binding result [3] | Kd [4] [nM] | Kd [5] [nM] | Kd [6] [nM] | Kd [7] [nM] | ka1 [7] [M⁻¹ s⁻¹] | ka2 [7] [s⁻¹] | kd1 [7] [s⁻¹] | kd2 [7] [s⁻¹]
1 | BC5C4 antibody (antibody, V domains shown, also called CD5C4) VH: EVQLVESGGGLVQPGRSLRLSCAASGFTFDDYAMHWVRQAPGKGLEWVSGISWNSGSIGYADSVKGRFTISRDNAKNSLYLQMNSLRAEDTAVYYCATIDNVAFHSWGQGTLVTVSS VL: QSVLTQPPSASGSPGQSVTISCTGTSSDIGGYNYVSWYQQHPGKAPKLIIYEVSNRPSGVSDRFSGSKSGNTASLTISGLQAEDEADYYCSSYTDNGALVVFGGGTKLTVL | 9.27 | 0.033 | 3.56e+06 | – | – | – | – | – | – | – | – | – | –
2 | BCA7-2E1 antibody (antibody, V domains shown, also called BCA-2E1) VH: EVQLVESGGGLVKPGGSLRLSCAASGFTSSTAWMSWVRQAPGKGLEWVGRIKSKSDGGTTDYAAPVKGRFTISRDDSKNTLFLQMNSLKTEDTAVYYCAKGGGTYGYWGQGTTVTVSS VL: QSALTQPASVSGSPGQSVTISCTGTSSDGGGHTYVSWYQQHPGKAPKLMIYDVSNRPSWVSNRFSGSKSGNTASLTISGLQAEDEADYYCGSYTSSGSYVFGTGTKLTVL | – | – | – | binds | binds | 20.4 | 1000 | 174 | 20.4 | 2.51e+06 | 0.0018 | 0.151 | 0.000929
3 | BCA7-2D11 antibody (antibody, V domains shown) VH: EVQLVESGGGLVKPGGSLRLSCAASGFTSSTAWMSWVRQAPGKGLEWVGRIKSKSDGGTTDYAAPVKGRFTISRDDSKNTLFLQMNSLKTEDTAVYYCAKGGGTYGYWGQGTTVTVSS VL: SYELTQPASVSGSPGQSVTISCTGTSSVVGGHDYVSWYQQHPGKAPKLMIYDVSNRPSGVSNRFSGSKSGNTASLTISGLQAEDEADYYCGSYTSSGSYVFGTGTKVTVL | – | – | – | – | – | – | – | – | 21.9 | 1.87e+06 | 0.00381 | 0.261 | 0.00071
4 | BCA7-2E8 antibody (antibody, V domains shown) VH: EVQLVESGGGLVKPGGSLRLSCAASGFTSSTAWMSWVRQAPGKGLEWVGRIKSKSDGGTTDYAAPVKGRFTISRDDSKNTLFLQMNSLKTEDTAVYYCAKGGGTYGYWGQGTTVTVSS VL: QSVLTQPASVSGSPGQSVTISCTGTSSDVGGYNYVSWYQQHPGKAPKLMIYDVSNRPSGVSNRFSGSKSGNTASLTISGLQAEDEADYYCGSLRSNGDYVFGTGTTLTVL | – | – | – | – | – | – | – | – | 155 | 48700 | 0.0119 | 0.0202 | 0.00707
5 | BCA7-2D8 antibody (antibody, V domains shown) VH: EVQLVESGGGLVKPGGSLRLSCAASGFTSSTAWMSWVRQAPGKGLEWVGRIKSKSDGGTTDYAAPVKGRFTISRDDSKNTLFLQMNSLKTEDTAVYYCAKGGGTYGYWGQGTTVTVSS VL: QSVLTQPASVSGSPGQSVTISCTGTSSSIGDSYYVSWYQQHPGKAPKLMIYDVSNRPSGVSNRFSGSKSGNTASLTISGLQAEDEADYYCGSYTSSGSYVFGTGTTLTVL | – | – | – | – | – | – | – | – | 83.8 | 2.43e+06 | 0.0113 | 1.09 | 0.0026
6 | BCA7-2G2 antibody (antibody, V domains shown) VH: EVQLVESGGGLVKPGGSLRLSCAASGFTSSTAWMSWVRQAPGKGLEWVGRIKSKSDGGTTDYAAPVKGRFTISRDDSKNTLFLQMNSLKTEDTAVYYCAKGGGTYGYWGQGTTVTVSS VL: QSVLTQPASVSGSPGQSVTISCTGTSSSVGGRQYVSWYQQHPGKAPKLMIYDVSNRPSGVSNRFSGSKSGNTASLTISGLQAEDEADYYCGSYTSSGSYVFGTGTKLTVL | – | – | – | – | – | – | – | – | 53.7 | 32100 | 0.00143 | 0.00376 | 0.00121
7 | BC4C9 antibody (antibody, V domains shown) VH: EVQLVQSGAEVKKPGASVKVSCKAFGYTFTSYDINWVRQATGQGLEWMGWMNPNSGNTGYAQKFQGRVTMTRNTSISTAYMELSSLRSEDTAVYYCASGLGEWGQGTLVTVSS VL: QSVLTQPASVSGSPGQSVTISCTGTSSDVGGYNYVSWYQQHPGKAPKLMIYDVSKRPSGVSNRFSGSKSGNTASLTISGLQAEDEADYYCISYSSSSTFYVFGTGTKVTVL | 27.3 | 0.000567 | 20800 | binds | binds | – | – | – | – | – | – | – | –
